From patent US20230149522A1, “POLYPEPTIDE FOR THE PROPHYLAXIS AND TREATMENT OF VIRAL INFECTIONS” (priority 2020, published 2023)
Read-outs that look alike come from different tables or passages of the source.

Experiments:
VSV(Luc-eGFP)-CoV-2 [1] = assay: microbe, parasite or virus in culture; conditions: Vesicular stomatitis virus, Caco-2, read-out: IC50 VSV(Luc-eGFP)-CoV-2
LV(Luc)-G = type: cell-based, Vesicular Stomatitis Virus
LV(Luc)-CoV-2 [2] = assay: microbe, parasite or virus in culture; conditions: Severe acute respiratory syndrome coronavirus 2, Caco-2, read-out: IC50 LV(Luc)-CoV-2
LV(Luc)-CoV-2 [3] = system: LV(Luc)-CoV-2
VSV(Luc-eGFP)-CoV-2 [4] = system: VSV(Luc-eGFP)-CoV-2
[5] = system: Caco2 (colorectal carcinoma cells)
[6] = system: Caco2 (colorectal carcinoma cells); remark: listed apart in the source
[7] = read-out: IC50 VSV(Luc-eGFP)-CoV-2

Row | Molecule | IC50 (VSV(Luc-eGFP)-CoV-2 [1]) [nM] | IC50 LV(Luc)-G (LV(Luc)-G) | IC50 LV(Luc)-MLV (LV(Luc)-MLV) | IC50 (LV(Luc)-CoV-2 [2]) [nM] | IC50 (VSV(Luc-eGFP)-G; 2 h) [nM] | IC50 (LV(Luc)-CoV-2 [3]; 1 h) [nM] | IC50 (LV(Luc)-MLV; 1 h) [nM] | IC50 (VSV(Luc-eGFP)-CoV-2 [4]; 2 h) [nM] | IC50 (VSV(Luc-eGFP)-G; read-out: IC50 VSV(Luc-eGFP)-G) [nM] | IC50 (LV(Luc)-G) [nM] | toxicity at the concentrations tested [5] | IC50 (LV(Luc)-CoV-2 [3]; read-out: IC50 LV(Luc)-CoV-2) [nM] | IC50 (LV(Luc)-MLV; read-out: IC50 LV(Luc)-MLV) [nM] | IC50 (VSV(Luc-eGFP)-CoV-2 [4]; [7]) [nM] | toxicity at the concentrations tested [6]
1 | CN(C)C(=O)COC(=O)Cc1ccc(OC(=O)c2ccc(NC(=N)N)cc2)cc1 [CM, camostat mesilate, reference compound] | 87.5 | unstable | unstable | 242 |  |  |  |  |  |  |  |  |  |  | 
2 | CC[C@H](C)[C@H](NC(=O)[C@H](C)NC(=O)[C@H](CCC(=O)O)NC(=O)[C@H](CCC(=O)O)NC(=O)[C@H](CC(C)C)NC(=O)[C@H](CCCCN)NC(=O)[C@H](CCCCN)NC(=O)[C@H](CCSC)NC(=O)[C@H](CCC(=O)O)NC(=O)[C@H](Cc1ccc(O)cc1)NC(=O)[C@H](CCC(=O)O)NC(=O)[C@H](CC(C)C)NC(=O)[C@H](CC(=O)O)NC(=O)[C@H](CC(C)C)NC(=O)[C@H](Cc1ccccc1)NC(=O)[C@@H](NC(=O)[C@@H](NC(=O)[C@H](CC(N)=O)NC(=O)[C@@H](NC(=O)[C@H](CCC(N)=O)NC(=O)[C@H](CC(=O)O)NC(=O)[C@H](CC(C)C)NC(=O)[C@@H](N)CO)[C@@H](C)CC)C(C)C)[C@@H](C)O)C(=O)N[C@@H](CCCCN)C(=O)N[C@@H](CCCCN)C(=O)N[C@@H](CC(C)C)C(=O)N[C@@H](CCC(=O)O)C(=O)N[C@@H](CCC(=O)O)C(=O)N[C@@H](CO)C(=O)N[C@@H](Cc1ccc(O)cc1)C(=O)N[C@H](C(=O)N[C@@H](CC(=O)O)C(=O)N[C@@H](CC(C)C)C(=O)N[C@@H](CCCCN)C(=O)N[C@@H](CCC(=O)O)C(=O)N[C@@H](CC(C)C)C(=O)O)[C@@H](C)CC [EK1, reference compound] |  |  |  |  | > 20000 | 82.4 | > 20000 | 281 |  |  |  |  |  |  | 
3 | LD2/3 (protein, human) ARHLARAPKATAPTELNCDDFKKGERDGDFICPDYYEAVCGTDGKTYDNRCALCAENAKTGSQIGVKSEGECKSSNPEQDVCSAFRPFVRDGRLGCTRENDPVLGPDGKTHGNKCAMCAELFLKEAENAKREGETRIRRN |  |  |  |  |  |  |  |  | 257 | 128 | toxic at the (two) maximum concentrations tested | 181 | 343 | 411 | 
4 | LD15 (protein, human) EEDSPDSFSSLDSEMCKDYRVLPRIGYLCPKDLKPVCGDDGQTYNNPCMLCHENLIRQTNTHIRSTGKCEESSTPGTTAASMPPSDE |  |  |  |  |  |  |  |  | 1020 | 545 | toxic at the (two) maximum concentrations tested | 956 | 1270 | 1850 | 
5 | LD6 (protein, human) ESGKATSYAELCNEYRKLVRNGKLACTRENDPIQGPDGKVHGNTCSMCEVFFQAEEEEKKKKEGESRNKR |  |  | unstable |  |  |  |  |  | 1610 | 2150 | toxic at the (two) maximum concentrations tested | 1030 |  | 4090 | toxic at the (two) maximum concentrations tested
